Reference: paper PMC6828814, “A cryptic hydrophobic pocket in the polo-box domain of the polo-like kinase PLK1 regulates substrate recognition and mitotic chromosome segregation” (Scientific Reports, 2019)

What was measured:
[1] = target: T1, PLK1 (polo-like kinase 1) polo-box domain (Homo sapiens, UniProt P53350); test: crystal structure (soaking) and competitive fluorescence polarisation with TAMRA-labelled PBIP1 phosphopeptide; assay type: binding
T1 construct: polo-box domain (PBD), recombinant
T1 sequence (P53350 367-603 limits assumed): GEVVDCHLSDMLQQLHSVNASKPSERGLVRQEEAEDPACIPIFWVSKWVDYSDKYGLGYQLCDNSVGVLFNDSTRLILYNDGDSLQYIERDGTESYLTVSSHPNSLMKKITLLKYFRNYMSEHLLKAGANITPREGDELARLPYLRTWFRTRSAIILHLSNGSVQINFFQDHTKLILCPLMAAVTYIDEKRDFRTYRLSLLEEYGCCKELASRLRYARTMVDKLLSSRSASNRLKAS

PLK1 [2] = target: PLK1 (UniProt P53350); test: GFP-Trap co-IP, anti-NEDD1 immunoblot; conditions: reference: GFP-PLK1Wt
PLK1 [3] = target: PLK1 (UniProt P53350); test: V5 co-IP, immunoblot; conditions: reference: PBIP1Wt-V5; sites T78

Compound: O=C(Nc1cccc(C(C(=O)O)C(=O)O)c1)c1ccc(C(=O)c2cccc(I)c2)s1 [Polotyrin]
- IC50 [1]: 115 ± 24 µM

Compound: NEDD1 (from UniProt Q8NHV4) GFP-PLK1AM (H538A/K540M)
- other: IP band intensity normalised to input (PLK1 [2]): lost; reference 0.2

Compound: PBIP1 (Polo-Box Interacting Protein 1) (from UniProt Q71F23) PBIP1-T78A-V5
- other: IP band intensity normalised to input (PLK1 [3]): weaker; reference 2.5
